# Assay results published in the DeepSol protein solubility set.
# Assay: soluble on expression in E. coli; label from the status in PepcDB or PDB records
row,Sequence,soluble on expression in E. coli
1,SMGSDDEEQEDPADYCKGGYHPVKIGDLFNGRYHVIRKLGWGHFSTVWLCWDMQGKRFVAMKVVKSAQHYTETALDEIKLLKCVRESDPSDPNKDMVVQLIDDFKISGMNGIHVCMVFEVLGHHLLKWIIKSNYQGLPVRCVKSIIRQVLQGLDYLHSKCKIIHTDIKPENILMCVDDAYVRRMAAEATEWQKAGAPPPSGSAVSTAPAADLLVNPLDPRNADKIRVKIADLGNACWVHKHFTEDIQTRQYRSIEVLIGAGYSTPADIWSTACMAFELATGDYLFEPHSGEDYSRDEDHIAHIIELLGSIPRHFALSGKYSREFFNRRGELRHITKLKPWSLFDVLVEKYGWPHEDAAQFTDFLIPMLEMVPEKRASAGECLRHPWLNS,soluble
2,MSLSEGTFEVGKNTFLLNGEPFVVKAAEIHYPRIPKEYWEHRIKMCKALGMNTICLYVFWNFHEPEEGRYDFAGQKDIAAFCRLAQENGMYVIVRPGPYVCAEWEMGGLPWWLLKKKDIKLREQDPYYMERVKLFLNEVGKQLADLQISKGGNIIMVQVENEYGAFGIDKPYISEIRDMVKQAGFTGVPLFQCDWNSNFENNALDDLLWTINFGTGANIDEQFKRLKELRPDTPLMCSEFWSGWFDHWGAKHETRSAEELVKGMKEMLDRNISFSLYMTHGGTSFGHWGGANFPNFSPTCTSYDYDAPINESGKVTPKYLEVRNLLGNYLPEGETLPEIPDSIPTIAIPTIKMTEMAVLFDNLPHPKESEDIRTMEAFDQGWGSILYRTSLSASDKEQTLLITEAHDWAQVFLNGKKLATLSRLKGEGVVKLPPLKEGDRLDILVEAMGRMNFGKGIYDWKGITEKVELQSDKGVELVKDWQVYTIPVDYSFARDKQYKQQENAENQPAYYRSTFNLNELGDTFLNMMNWSKGMVWVNGHAIGRYWEIGPQQTLYVPGCWLKKGENEIIILDMAGPSKAETEGLRQPILDVQRGNGAYAHRKMGEGHHHHHH,soluble
3,MGSDKIHHHHHHMDEFDYVRRKLIERILHLTEKQPVVRPLPGLTVGRRESPTEPSTYILPPSICIAVQGAKRVLIGEEYYVYDVENFLLNSFDVPVVAQVIEASKEKPYIGMTWEIDMEILMEIVVEQKLNTRPITSSRGTSLGKVTHQLLDAFRRMLELLDEPEHISALLPVIKKEIIYRLLVSEQGPRLIQIALSGKNDVITALNYLKEHFNESVNMKRLAEMVGMSVSTFYQNFKILTGMTPLQYQKKLRLCEARKLLMAGSDVTTAAYQVGYESLSQFSREYKRFFGVSPSQDAKKLKEEPYTRILY,not soluble
4,MASSSSAALRPFGTARLTPGRQTGRQTQQQISAPEPMIAIALSDMEYLMRSARSSRSSGRSERQPGCTCCCHIAAGVTVIPRVARFSIEGGLSTHTLMNHSDNRIAVKITCSDNNMYRVTPVYATVEPGQSLPLHIARITSDLIKRDRLCVNILEADGNKEAREIFKKNANTRAPASINMALEATNDNQNHHHQE,not soluble
5,MSVIIRLKNLPMTAGASDVRTFFTGLKIPDGAVHIIGGDEGEVFVGFSSDDDARLAMTKDRLMIHGAEVRLFLSSKSEQNSVIAARKNNTYTSPVYKEYVPPVPSQPTPAQEQNWNSQTAGNPYAAKAGYEASYPPQNSNATRTSFNNQNSYSNRQEISQNHQENSVKLKDPFGGDYGGYKFQQQPPPQINRYGSGPPPSKPADLSNTRSLPPVNNPPPPHPIPQFPPEKQFGNKLGNNNDVSSRENHIQGSGNERVQGGDSWRDTSFNQPPRNDFKGNYNNAYSSNKYKNNYKAPEFNNDFNGGNKFNQFPPRNAQSTDLSENRAAPPQTGRKTLMPTPQAPFQNAPAPFTNGPSDDVNRPFQTGPPGNLGRNGPPPFQAGVPPPVIQNNMGRPIAPPAAMVRPPPQNFPGGAGGALPVFQAPVMTPIVPPVNKPMGAAAVEKFYIELTRLPTDLLRPAALEAFIHPTAPLTLSSVKTVFGPGGIHMHTIIRLDSIADYATMMRRNGEQGIKIQQSDKKSFDTAIDGIPIPSVSMVPSKEQRSHEDDDKKSRRSRWENTSPIRSPRRSPLRRDNRDRSRSRSPPRRRRRSRSPRRREEHTDPTRWCVQVTNVPFRMKDEELLEWFSEKVRPAKLTRTFYSDGNASDRWVAEFSSESLMKRSFGIRTLCTGRTLRLRYIDNAKADEILKIEDVYGEGKRQMNEEARLQHEVAEKANPPSFFNAPAATRGSGPMPPLNGTAPLPSGQQNGMNVPPPNGFNGAPMRGGFVPRGGNNFSQSRGGMMGRGGHGGGGGPQNFYQNGPNNFNNGPPEQQGQFRGNQGNDGGFRGGFRGGYRGRGGGRGGFQGGSRGDDSQPSQSELMELIKSIGPRGTVLSCNGFPKDVTLEDVVEFFNDYEPDRNSIRIRRGDDGVMTGECMLACQNQENARRASMDLDGQKLRNSVISVRII,not soluble
6,MGSDKIHHHHHHMNQVTTYLWETHLPGGSHWSGVVRRGTTLRLTDVSGGANAAVLFYNLEEKLERYNMADTLKTQHTFCLTKGHACHSDMGRIFCCITEDTAGWHDTVCGLSDAELIQQKYGTGRYQELRNDMYRNGLDGMLVELGKWGLGRRDVVSNINFFSKVTANSVGELQFHVSHSKAGDHVDLAFAMDTLVVLSAAPHPLDPAATYRPGAVNLAVFPSTPAVTGACAHIAENARGLENTRRLYAYGGVK,not soluble
7,SAESWLRLSGAGPAEEAGPEGGLEEPDALDDSLTSLQWLQEFSILNAKAPALPPGGTDPHGYHQVPGSAAPGSPLAADPACLGQPHTPGKPTSSCTSRSAPPGLQAPPPDDVDYATNPHVKPPYSYATLICMAMQASKATKITLSAIYKWITDNFCYFRHADPTWQNSIRHNLSLNKCFIKVPREKDEPGKGGFWRIDPQYAERLLSGAFKKRRLPPVHIHPAFARQAAQEPSAVPRAGPLTVNTEAQQLLREFEEATGEAGWGAGEGRLGHKRKQPLPKRVAKVPRPPSTLLPTPEEQGELEPLKGNFDWEAIFDAGTLGGELGALEALELSPPLSPASHVDVDLTIHGRHIDCPATWGPSVEQAADSLDFDETFLATSFLQHPWDESGSGCLPPEPLFEAGDATLASDLQDWASVGAFL,soluble
8,MHILVVSVNYRTAPVEFREKLTFQAAELERAMTTLQNQKSVLENVIVSTCNRTEIYAVVDQLHTGRYYIKKFLADWFQLEIEEVAPYLTIFEQDGAIDHLFRVTCGLDSMVVGETQILGQIKDSFLEAQQVKATGTIFNELFKQVITLAKRAHSETTIGESAMSVSYAAVELGKKIFGELTDCHVLILGAGKMGELALQNLYGSGARKVTVMNRTLSKAEIMAEKYMGHAKPLSELQCALLEADILISSTGASDYVITKEMMTKVEKMRSGRPLFMVDIAVPRDIDPAIDELEGSFLYDIDDLQGVVEANRAERLKEAEKIQFMIEEEIVLFKTWLSTLGVVPLISALRDKALAIQSETMESLERKIPNLSDRERKVISKHTKSIINQLLKDPILVAKEIAAEEGADEKLALFAKIFDLEMEDVESRAEEVEHKRVWTPSVPSL,not soluble
9,MSANKELQQGYSDYSAASDQAALLNRLITAMQKGELTDELLEHIPELGDAKKLNDKLKYRKSILEKSIAEQAAKNKKNGVKATSTSSPSSSTSAPAEKKAKKDGKTGGAPPKQAKKVDYVTVEDYGSSIFGRLQSLFKKAIEDAFPGLDVPLLLAETPNPQFGDYQCNSAMPIAAKLKANKINKRPGDVAKEIQAKLPTKIDFVEKIDVMPAGFINIFLNTDYLRRQISLLASEGVKLPKLTRKRVLVDFSSPNIAKEMHVGHLRSTIIGDSICRLFEAVGFDVLRVNHIGDWGTQFGMLIAHLYDRFPDFLKKLPDISDLQAFYKESKKRFDEDEQFKKRAYEYVVKLQSHDGDIVKAWNTICDVSKKYNQIVYNYLDIKIKDVGESFYQDKMIELVKWVKTNKPDMLREEDGRQIMFPTGCDIPLTVVKSDGGFTYDTSDLAALKYRMLEEKCDWNIYVVDSGQSLHLETVYAAGRDFGWYDESIQRVEHVAFGLVLGDDKKKFKTRSGETVRLLDLLSEGVKRATEKLIEKGRETAMSEEQLVAARDAVAFGCVKYADLSHTRTQDYVFSFDRMLEDRGNTAVYLLYAYTRIQSIFEKDEVKNVDLVKYIASTPTLPLDHPGEFKLAKQLLKLSDCVLLVLDSLMLHQMCDYVYQLATLFHDFYNECYVIENKEGEKPFVHMHRLALCDVTRKVMSTCFKILGLREVNKM,not soluble
10,EVQLVESGGDLVKPGGSLKLSCAASGFTFSSYGMSWIRQTPDKRLEWVATISSGGSYTYYPDSVKGRFTISRDNAKNTLYLQMSSLKSEDTAMFYCARQTTMTYFAYWGQGTLVTVSAAKTTPPSVYPLAPGSAAQTNSMVTLGCLVKGYFPEPVTVTWNSGSLSSGVHTFPAVLQSDLYTLSSSVTVPSSPRPSETVTCNVAHPASSTKVDKKIEPA,soluble
11,MILNNESNKKKKFEQFFIMTYPKVKAFAWKLLKSEEDAEDIAQDIFAKLWTNPEIWENQETWNSYIYTMVRNHIYNFLKHKSIRQTYQEQCTKEEPAISETDIHDQLYAKESELLIKLTIANMPEQRRKIFRMSRTQEKSNQEIADELNISIRTVERHIYLALIDLKKVLLTLFFFYLG,not soluble
12,GSGSGSDIEAYLERIGYKKSRNKLDLETLTDILQHQIRAVPFENLNIHCGDAMDLGLEAIFDQVVRRNRGGWCLQVNHLLYWALTTIGFETTMLGGYVYSTPAKKYSTGMIHLLLQVTIDGRNYIVDAGSGRSYQMWQPLELISGKDQPQVPCVFRLTEENGFWYLDQIRREQYIPNEEFLHSDLLEDSKYRKIYSFTLKPRTIEDFESMNTYLQTSPSSVFTSKSFCSLQTPDGVHCLVGFTLTHRRFNYKDNTDLIEFKTLSEEEIEKVLKNIFNISLQRKLVPKHGDRFFTI,soluble
13,GTTKISVPVPPPDANFPPSAAPVFYNPEMELNRDINVAATAAFVERLLSKKDILREEIRYVDAFSASGIRGLRIAGEVGIHSTMNDWSHEAFELIKENIKINGLEEKAQATRRNANVLLHEQRFHIVDVDPFGTPSPYLDAAASSAYSMLSVTATDTAPLCGAHLNSGIRKYASVPLNTEYHSEMGLRVLLGACARELAKHEKGMLPLLSHVTRHYVRTYLEVLPGSRKADKTLKSMGFVAHCPRCGFRKPVYGLAVHIEKECPECGGLTKIAGPLWLGPYREPEFCNEVISELEAHPLNTKEKVRKIITFCRDELDIPMFYDQHVICKELGASATGIESLIEALRAGGFEASRTHFTGTSFKTDAPIAEIKKIILALSG,not soluble
14,IPAGELQIIDKIDAAFKVAATAAATAPADDKFTVFEAAFNKAIKETTGGAYDTYKCIPSLEAAVKQAYAATVAAAPQVKYAVFEAALTKAITAMSEVQKVSQ,soluble
15,MYPNISDCGVIGDTRTAALVNSNGSIDYCSLPYFDSPTVFAALLDERKGGYFSLKPAEAFSSRREYLPDTCILCTSFTTRNGKAALYDFMPHQDDKTRERTQGIHRCIRVDEGRVKFTLTLKLLTFQQTGAIVAAATTSLPESIGGKRNWDYRFTWIRNASFTLKAFFALSHTSEADTFIRWLHDTYRKNGSRGFSQKLNAFVQRFDTEILDASLLIMPLVDFLPVTDQRIQGTIEACQTHLMDNGFIRRYRADDGLEEDEGGFLLCNFWMIECLALSGKSAEAEKLLGITMAAANDLGLFSEEYDPYSREMLGNFPQAFSHIGYINAAATLIDSKLPLANPLEHHHHHH,not soluble
